Data taken from the Immune Epitope Database (IEDB).

What was measured:
HLA-B*51:01 [1] = test: IEDB peptide-MHC binding, purified MHC/direct/fluorescence; filed as Kd, often an IC50 or EC50 that approximates it; ≥ and ≤ were set here for values at or beyond the usual limits of such assays
HLA-B*53:01 = test: IEDB peptide-MHC binding, purified MHC/competitive/radioactivity; filed as Kd, often an IC50 or EC50 that approximates it; ≥ and ≤ were set here for values at or beyond the usual limits of such assays; details: source organism: Dengue virus 1 Brazil/97-11/1997
HLA-B*07:02 = test: IEDB peptide-MHC binding, purified MHC/direct/fluorescence; filed as Kd, often an IC50 or EC50 that approximates it; ≥ and ≤ were set here for values at or beyond the usual limits of such assays
HLA-B*15:01 [2] = test: as above
HLA-A*02:03 = test: as above; details: source organism: Zaire ebolavirus
HLA-A*02:11 = test: as above; details: source organism: Zaire ebolavirus
HLA-A*02:12 = test: as above; details: source organism: Zaire ebolavirus
HLA-A*02:16 = test: as above; details: source organism: Zaire ebolavirus
HLA-A*02:19 = test: as above; details: source organism: Zaire ebolavirus
HLA-A*03:01 = test: as above
HLA-A*24:03 = test: as above; details: source organism: Reston ebolavirus - Reston
HLA-A*29:02 = test: as above
HLA-A*68:02 = test: as above; details: source organism: Zaire ebolavirus
HLA-A*02:01 = test: IEDB peptide-MHC binding, purified MHC/competitive/fluorescence; filed as Kd, often an IC50 or EC50 that approximates it; ≥ and ≤ were set here for values at or beyond the usual limits of such assays; details: source organism: Zaire ebolavirus
HLA-A*26:01 = test: as above; details: source organism: Zaire ebolavirus
HLA-A*69:01 [3] = test: as above; details: source organism: Zaire ebolavirus
HLA-B*15:01 [4] = test: as above; details: source organism: Zaire ebolavirus
HLA-B*15:17 = test: as above; details: source organism: Zaire ebolavirus
HLA-B*18:01 [5] = test: as above; details: source organism: Zaire ebolavirus
HLA-B*27:03 = test: as above; details: source organism: Zaire ebolavirus
HLA-B*39:01 [6] = test: as above; details: source organism: Zaire ebolavirus
HLA-B*46:01 [7] = test: as above; details: source organism: Zaire ebolavirus
HLA-B*51:01 [8] = test: as above; details: source organism: Zaire ebolavirus
HLA-B*57:01 [9] = test: as above; details: source organism: Zaire ebolavirus
HLA-A*01:01 = test: IEDB peptide-MHC binding, purified MHC/direct/fluorescence; filed as Kd, often an IC50 or EC50 that approximates it; ≥ and ≤ were set here for values at or beyond the usual limits of such assays; details: source organism: Mycobacterium tuberculosis
HLA-A*31:01 = test: as above; details: source organism: Mycobacterium tuberculosis
HLA-A*69:01 [10] = test: as above; details: source organism: Mycobacterium tuberculosis
HLA-B*18:01 [11] = test: as above; details: source organism: Mycobacterium tuberculosis
HLA-B*27:05 = test: as above; details: source organism: Mycobacterium tuberculosis
HLA-B*39:01 [12] = test: as above; details: source organism: Mycobacterium tuberculosis
HLA-B*44:02 = test: as above; details: source organism: Mycobacterium tuberculosis
HLA-B*46:01 [13] = test: as above; details: source organism: Mycobacterium tuberculosis
HLA-B*48:01 = test: as above; details: source organism: Mycobacterium tuberculosis
HLA-B*57:01 [14] = test: as above; details: source organism: Mycobacterium tuberculosis
HLA-B*58:01 = test: as above; details: source organism: Mycobacterium tuberculosis
[15] = source organism: Yersinia pestis
[16] = source organism: Zaire ebolavirus
[17] = source organism: Mycobacterium tuberculosis

What does the source list for CPTQGEATL?
Kd (HLA-B*51:01 [1]; source organism: Dengue virus): ≥ 20 µM; Kd (HLA-B*53:01): 0.0199 µM

How did the Kd (HLA-B*07:02; [15]) turn out when LPLEFWQAW was run?
The Kd was 0.235 µM.

And the Kd (HLA-B*15:01 [2]; source organism: Yersinia enterocolitica subsp. enterocolitica 8081)?
The Kd was at least 20 µM.

What about the Kd (HLA-B*51:01 [1]; [15]) of the same sequence?
The Kd was at least 20 µM.

Which results are given for AFHQLVQVI?
Kd (HLA-A*02:03): ≥ 20 µM; Kd (HLA-A*02:11): ≥ 20 µM; Kd (HLA-A*02:12): ≥ 20 µM; Kd (HLA-A*02:16): ≥ 20 µM; Kd (HLA-A*02:19): ≥ 20 µM; Kd (HLA-A*03:01; [16]): ≥ 20 µM; Kd (HLA-A*24:03): 0.0021 µM; Kd (HLA-A*29:02; [16]): ≥ 20 µM; Kd (HLA-A*68:02): ≥ 20 µM; Kd (HLA-A*02:01): ≥ 20 µM; Kd (HLA-A*26:01): ≥ 20 µM; Kd (HLA-A*69:01 [3]): ≥ 20 µM; Kd (HLA-B*15:01 [4]): ≥ 20 µM; Kd (HLA-B*15:17): ≥ 20 µM; Kd (HLA-B*18:01 [5]): ≥ 20 µM; Kd (HLA-B*27:03): ≥ 20 µM; Kd (HLA-B*39:01 [6]): ≥ 20 µM; Kd (HLA-B*46:01 [7]): ≥ 20 µM; Kd (HLA-B*51:01 [8]): ≥ 20 µM; Kd (HLA-B*57:01 [9]): ≥ 20 µM

What does the source list for QQDTNSAGL?
Kd (HLA-A*01:01): ≥ 20 µM; Kd (HLA-A*03:01; [17]): ≥ 20 µM; Kd (HLA-A*29:02; [17]): ≥ 20 µM; Kd (HLA-A*31:01): ≥ 20 µM; Kd (HLA-A*69:01 [10]): ≥ 20 µM; Kd (HLA-B*07:02; [17]): ≥ 20 µM; Kd (HLA-B*15:01 [2]; [17]): ≥ 20 µM; Kd (HLA-B*18:01 [11]): ≥ 20 µM; Kd (HLA-B*27:05): ≥ 20 µM; Kd (HLA-B*39:01 [12]): 0.301 µM; Kd (HLA-B*44:02): ≥ 20 µM; Kd (HLA-B*46:01 [13]): ≥ 20 µM; Kd (HLA-B*48:01): ≥ 20 µM; Kd (HLA-B*57:01 [14]): ≥ 20 µM; Kd (HLA-B*58:01): ≥ 20 µM
